Tests used:
[1] = system: DpnI biotinylated (bDpnI); experiment: pulldown
[2] = system: anti-N6-methyladenine mouse polyclonal antisera (Mus musculus); experiment: ELONA; conditions: N6-methyladenine at position 6 (printed as marked A) [6 (N6-methyladenine)]; oligo ELISA, antisera 1:10,000
[3] = system: anti-N6-methyladenine monoclonal antibody (best hybridoma) (Mus musculus); experiment: ELONA; conditions: N6-methyladenine at position 6 (printed as marked A) [6 (N6-methyladenine)]; nearly 40 fold discrimination

Q: E. coli genomic DNA was tested. Which binding signal ([1]; N6-methyladenine at GATC (dam), 10 ng E. coli DNA in 1 ug human DNA, at least 30% at pg input) did it give?
A: The binding signal was greater than 80 % recovered.

Q: Which results are given for GCAGGATCAACAGTCACACT [N6mA oligo]?
A: binding signal (fold preference over unmethylated oligo) [2]: > 10; binding signal (fold preference over unmethylated oligo) [3]: 40

Q: With human genomic DNA as the substance, how does the binding signal ([1]; 1 ug human DNA, one wash, reduced to 1% with three washes) read?
A: The binding signal was 10 % recovered.
